# Measured values reported in patent US20200165323A1 (PANASONIC INTELLECTUAL PROPERTY MANAGEMENT, published 2020).
# Biological target: recombinant nucleoprotein (NP) protein derived from influenza virus H1N1 to which a Flag tag was fus (influenza virus H1N1)
# Sequence (P03466 whole entry): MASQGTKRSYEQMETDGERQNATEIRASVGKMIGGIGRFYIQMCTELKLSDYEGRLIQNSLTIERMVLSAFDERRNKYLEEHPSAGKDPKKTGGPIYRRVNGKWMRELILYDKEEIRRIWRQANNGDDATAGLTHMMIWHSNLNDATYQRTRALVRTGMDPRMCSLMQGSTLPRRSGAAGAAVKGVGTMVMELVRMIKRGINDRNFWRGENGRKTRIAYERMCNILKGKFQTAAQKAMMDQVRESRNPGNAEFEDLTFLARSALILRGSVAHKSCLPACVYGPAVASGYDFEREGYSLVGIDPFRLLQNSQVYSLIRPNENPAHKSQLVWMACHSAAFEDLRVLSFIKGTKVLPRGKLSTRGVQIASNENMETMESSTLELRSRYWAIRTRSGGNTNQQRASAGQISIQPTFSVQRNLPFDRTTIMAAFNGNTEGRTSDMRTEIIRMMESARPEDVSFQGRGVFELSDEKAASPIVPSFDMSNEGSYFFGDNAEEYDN
binder,measurement,value
VHH antibody consisting of the amino acid sequence represented by SEQ ID NO: 8 (VHH) VHH: QLQLVESGGGLVQAGGSLRLSCAASGSAFSLYAMGWHRQAPGKQRELVAYITNGDITNYADSVQGRVIISRDNAKNTVYLHMNSLKPEDTAVYYCYAVGGRTFWGQGTQVTVSS,Kd,1.09 nM
